According to patent US20260274985A1 (MYTHIC THERAPEUTICS, published 2026):
Residue numbers refer to the chain shown, from its start.

B1: MYT13290 (antibody, V domains shown)
VH: QVQLQESGPGLVKPSETLSLTCTVSGGSISSYGVHWIRQPPGKGLEWIGVIWTSGVTDYNSALMGRVTISVDTSKNQFSLKLSSVTAADTAVYYCARDGDYDRYTHDYWGQGTLVTVSS
VL: DIVMTQSPDSLAVSLGERATINCRASKSVSTSGYSYMHWYQQKPGQPPKLLIYLASNLESGVPDRFSGSGSGTDFTLTISSLQAEDVAVYYCHHSRELPYTFGQGTKLEIK
B2: MYT13446 (antibody, V domains shown)
VH: B1 VH with R103H, H106M
VL: B1 VL with E59H, H93Q, T101H
B3: MYT13285 (antibody, V domains shown)
VH: B1 VH
VL: B1 VL with S60H, H93Q
B4: MYT13283 (antibody, V domains shown)
VH: B1 VH with D102H, H106M
VL: B1 VL with S60H, H93Q
B5: MYT13279 (antibody, V domains shown)
VH: B1 VH with R103H, H106M
VL: B1 VL with E59H, H93Q
B6: MYT13289 (antibody, V domains shown)
VH: B1 VH with R103H, H106M
VL: B1 VL
B7: MYT13299 (antibody, V domains shown)
VH: B1 VH with R103H, H106M
VL: B1 VL with H93Q, E97H
B8: MYT13300 (antibody, V domains shown)
VH: B1 VH
VL: B1 VL with H93Q, E97H
B9: MYT13298 (antibody, V domains shown)
VH: B1 VH with D102H, H106M
VL: B1 VL with H93Q, E97H
B10: MYT13288 (antibody, V domains shown)
VH: B1 VH with D102H, H106M
VL: B1 VL
B11: MYT13420 (antibody, V domains shown)
VH: QVQLQQSGSELKKPGASVKVSCKASGYTFTNYGMNWVKQAPGQGLKWMGWINTYTGEPTYTDDFHGRFAFSLDTSVSTAYLQISSLKADDTAVYFCARGGFGSSYWYFDVWGQGSLVTVSS
VL: DIQLTQSPSSLSASVGDRVSITCKASQDVHIAVAWYQQKPGKAPKLLIYSHSYRYTGVPDRFSGSGSGTDFTLTISSLQPEDFAVYYCHQHYITPLTFGAGTKVEIK
B12: MYT13379 (antibody, V domains shown)
VH: B11 VH with F64H, H65K
VL: B11 VL with H89Q
B13: MYT13416 (antibody, V domains shown)
VH: B11 VH with Y60H, H65K
VL: B11 VL
B14: MYT13388 (antibody, V domains shown)
VH: B11 VH
VL: B11 VL with H51A, S52H, H89Q
B15: MYT13372 (antibody, V domains shown)
VH: B11 VH
VL: B11 VL with V33H, H51A, H89Q
B16: MYT13402 (antibody, V domains shown)
VH: B11 VH with D63H, H65K
VL: B11 VL with H30S, V33H, H51A, H89Q, I93H
B17: MYT13395 (antibody, V domains shown)
VH: B11 VH with F64H, H65K
VL: B11 VL with H30S, V33H, H51A, Y53H, H89Q
B18: MYT13413 (antibody, V domains shown)
VH: B11 VH with H65K, G66H
VL: B11 VL with H30S, S52H, H89Q
B19: MYT13422 (antibody, V domains shown)
VH: B11 VH with Y32H, H65K
VL: B11 VL with H89Q, I93H
B20: MYT13405 (antibody, V domains shown)
VH: B11 VH with H65K, G66H
VL: B11 VL with H30S, V33H, H51A, H89Q, I93H
B21: MYT13404 (antibody, V domains shown)
VH: B11 VH
VL: B11 VL with H30S, V33H, H51A, H89Q, I93H
B22: MYT13400 (antibody, V domains shown)
VH: B11 VH with Y60H, H65K
VL: B11 VL with H30S, V33H, H51A, H89Q, I93H
B23: MYT13435 (antibody, V domains shown)
VH: B11 VH with F64H, H65K
VL: B11 VL with H30S, Y53H, H89Q, I93H
B24: MYT13401 (antibody, V domains shown)
VH: B11 VH with D62H, H65K
VL: B11 VL with H30S, V33H, H51A, H89Q, I93H
B25: MYT13377 (antibody, V domains shown)
VH: B11 VH with D62H, H65K
VL: B11 VL with H89Q
B26: MYT13392 (antibody, V domains shown)
VH: B11 VH with Y60H, H65K
VL: B11 VL with H30S, V33H, H51A, Y53H, H89Q
B27: MYT13403 (antibody, V domains shown)
VH: B11 VH with F64H, H65K
VL: B11 VL with H30S, V33H, H51A, H89Q, I93H
B28: MYT13398 (antibody, V domains shown)
VH: B11 VH with Y32H, H65K
VL: B11 VL with H30S, V33H, H51A, H89Q, I93H

Target: T1, TROP2 on TROP2-positive NCI-H1975 cells (human, UniProt P09758 27-323)
T1 sequence: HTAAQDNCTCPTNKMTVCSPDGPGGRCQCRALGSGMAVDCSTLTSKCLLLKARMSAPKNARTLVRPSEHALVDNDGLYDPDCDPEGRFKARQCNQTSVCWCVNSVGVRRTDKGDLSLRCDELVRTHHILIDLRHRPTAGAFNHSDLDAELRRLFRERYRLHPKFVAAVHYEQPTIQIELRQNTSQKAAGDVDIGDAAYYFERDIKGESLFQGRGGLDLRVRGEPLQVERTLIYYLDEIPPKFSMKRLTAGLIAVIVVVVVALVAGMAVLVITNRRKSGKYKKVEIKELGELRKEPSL
Test: cell-based or functional assay

Binder	FOW H1975 (10 nM)
B1	1.7 fold over parent antibody
B2	1.09 fold over parent antibody
B3	1.61 fold over parent antibody
B4	1.51 fold over parent antibody
B5	1.37 fold over parent antibody
B6	1.37 fold over parent antibody
B7	1.35 fold over parent antibody
B8	1.39 fold over parent antibody
B9	1.59 fold over parent antibody
B10	1.15 fold over parent antibody
B11	1.34 fold over parent antibody
B12	1.33 fold over parent antibody
B13	1.29 fold over parent antibody
B14	1.24 fold over parent antibody
B15	1.18 fold over parent antibody
B16	1.1 fold over parent antibody
B17	1.29 fold over parent antibody
B18	1.06 fold over parent antibody
B19	1.13 fold over parent antibody
B20	1.16 fold over parent antibody
B21	1.08 fold over parent antibody
B22	1.13 fold over parent antibody
B23	1.33 fold over parent antibody
B24	1.16 fold over parent antibody
B25	1.26 fold over parent antibody
B26	1.19 fold over parent antibody
B27	1.13 fold over parent antibody
B28	1.07 fold over parent antibody
